Results on three molecules are retold here after article PMC9977683, “IFNγ binding to extracellular matrix prevents fatal systemic toxicity” (Nature Immunology, 2023).

The target of test [1] is IFNγ receptor (Homo sapiens) (UniProt P15260). The settings on record: cited from earlier work.
In test [2] the target is T1, IFNγR1 extracellular domain (amino acids 26–254), recombinant (mouse, UniProt P15261 26-254).
T1 construct: mouse interferon-gamma receptor 1, extracellular domain, amino acids 26-254, cloned from mouse cDNA into pET26b-N-His6-SUMO; Immobilised on the chip through anti-His5; source: E. coli (T7 express, with pRARE plasmid), periplasmic expression, purified (osmotic shock, HisTrap, gel filtration); not shown: His6-SUMO, N-terminal, cleaved; His6, C-terminal, kept
T1 sequence (looked up): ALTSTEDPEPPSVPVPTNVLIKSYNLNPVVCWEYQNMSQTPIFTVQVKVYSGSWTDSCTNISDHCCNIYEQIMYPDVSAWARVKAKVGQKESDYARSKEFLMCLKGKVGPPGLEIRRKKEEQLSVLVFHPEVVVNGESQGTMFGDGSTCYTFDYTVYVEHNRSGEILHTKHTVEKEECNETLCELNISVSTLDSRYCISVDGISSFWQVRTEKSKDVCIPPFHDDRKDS
Description: SPR; Biacore T200, CM4 chip coated with anti-His5 onto which recombinant IFNγR1 was immobilised; IFNγ variants injected over 180 s at 0, 1, 2.5, 5, 10, 25 and 50 nM. The settings on record: both partners purified.

Chain of IFNγ receptor (Homo sapiens) (P15260 18-245): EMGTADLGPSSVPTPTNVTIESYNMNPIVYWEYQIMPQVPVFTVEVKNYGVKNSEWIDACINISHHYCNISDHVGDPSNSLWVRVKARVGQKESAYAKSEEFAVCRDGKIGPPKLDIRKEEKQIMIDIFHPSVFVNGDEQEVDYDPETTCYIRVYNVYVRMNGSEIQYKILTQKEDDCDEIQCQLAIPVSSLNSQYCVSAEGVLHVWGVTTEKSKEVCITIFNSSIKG

For the molecule IFNγ (from UniProt P01579), the Kd (in general, the concentration at which binding is half-saturated) in test [1] is 500 pM.

B1: Interferon-γ (IFNγ), recombinant (ligand, mouse, UniProt P01580 23-155, looked up)
chain: HGTVIESLESLNNYFNSSGIDVEEKSLFLDIWRNWQKDGDMKILQSQIISFYLRLFEVLKDNQAISNNISVIESHLITTFFSNSKAKKDAFMSIAKFEVNNPQVQRQAFNELIRVVHQLLPESSLRKRKRSRC
notes: mouse interferon-gamma, cDNA without the leader peptide, codon optimized, in pET28-N-His6-SUMO; also called IFNγ^wt; source: E. coli (T7 express, with pRARE plasmid), purified (HisTrap, size-exclusion chromatography); not shown: His6-SUMO, N-terminal, cleaved
Regarding B1, in test [2], the binding result is given as “binds”.

B2: IFNγ–green fluorescent protein fusion protein (IFNγ–GFP), recombinant (ligand, mouse, UniProt P01580 23-155, looked up)
chain: B1 chain
notes: mouse interferon-gamma, cDNA without the leader peptide, with GFP fused to the C-terminus; source: E. coli (T7 express, with pRARE plasmid), purified (HisTrap, Superdex 200); not shown: His6-SUMO, N-terminal, cleaved; GFP, C-terminal, kept
Turning to B2, the binding result in test [2] is given as “binds”.
